Data reported in patent US20180016327A1 (Chugai, published 2018).

molecular target: T1, human C5 (human, UniProt P01031 19-673; P01031 678-1676, Beta and alpha chains are disulfide-linked and the protein is glycosylated.); assay: Biacore, captured antibody, pH 7.4, 37 C;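 also: biacore binding response of anti-C5 antibody light chain variants captured on chip with human C5 injected, ACES running buffer containing 1.2 mM CaCl₂, parent light chain antibody set to 100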
T1 construct: Either in-house recombinant C5 or plasma derived C5 (CALBIOCHEM) was used; also called recombinant human C5; plasma derived human C5
Procedure: The light chain variants were tested for the binding affinity to C5 at pH 7.4 and at 37 degrees C. using Biacore T200 instrument (GE Healthcare) or Biacore 4000 instrument (GE Healthcare). […] Anti-C5 antibodies were captured on an immobilized molecule, and then human C5 was injected. The running buffer used was pH 7.4 ACES Buffer containing 1.2 mM Ca (20 mM ACES, 150 mM NaCl, 1.2 mM CaCl₂, 0.05% Tween 20). A value, % binding, was determined by normalizing binding response with that of antibody comprising parent light chain as 100.

% binding (parent = 100) [%] | Binder
51.3 | CFP0015 15L 30Y (antibody, V domains shown) VH: QVQLLESGGGLVQPGGSLRLSCAASGFTFSSYAMSWVRQAPGKGLEWVSAISGSGGSTYYADSVKGRFTISRDNSKNTLYLQMNSLRAEDTAVYYCARGDQIWYDQWYYFDMWGQGTLVTVSS VL: DIQMTQSPSSLSASVGDRVTITCRASQSIYDDLAWYQQKPGKAPKLLIYEASNLQSGVPSRFSGSGSGTDFTLTISSLQPEDFATYYCQQYDSSPLTFGQGTKVEIK
10.9 | CFP0015 15L 32N (antibody, V domains shown) VH: QVQLLESGGGLVQPGGSLRLSCAASGFTFSSYAMSWVRQAPGKGLEWVSAISGSGGSTYYADSVKGRFTISRDNSKNTLYLQMNSLRAEDTAVYYCARGDQIWYDQWYYFDMWGQGTLVTVSS VL: DIQMTQSPSSLSASVGDRVTITCRASQSIEDNLAWYQQKPGKAPKLLIYEASNLQSGVPSRFSGSGSGTDFTLTISSLQPEDFATYYCQQYDSSPLTFGQGTKVEIK
0.8 | CFP0015 15L 32H (antibody, V domains shown) VH: QVQLLESGGGLVQPGGSLRLSCAASGFTFSSYAMSWVRQAPGKGLEWVSAISGSGGSTYYADSVKGRFTISRDNSKNTLYLQMNSLRAEDTAVYYCARGDQIWYDQWYYFDMWGQGTLVTVSS VL: DIQMTQSPSSLSASVGDRVTITCRASQSIEDHLAWYQQKPGKAPKLLIYEASNLQSGVPSRFSGSGSGTDFTLTISSLQPEDFATYYCQQYDSSPLTFGQGTKVEIK
15.8 | CFP0015 15L 31T (antibody, V domains shown) VH: QVQLLESGGGLVQPGGSLRLSCAASGFTFSSYAMSWVRQAPGKGLEWVSAISGSGGSTYYADSVKGRFTISRDNSKNTLYLQMNSLRAEDTAVYYCARGDQIWYDQWYYFDMWGQGTLVTVSS VL: DIQMTQSPSSLSASVGDRVTITCRASQSIETDLAWYQQKPGKAPKLLIYEASNLQSGVPSRFSGSGSGTDFTLTISSLQPEDFATYYCQQYDSSPLTFGQGTKVEIK
42.2 | CFP0015 15L 31N (antibody, V domains shown) VH: QVQLLESGGGLVQPGGSLRLSCAASGFTFSSYAMSWVRQAPGKGLEWVSAISGSGGSTYYADSVKGRFTISRDNSKNTLYLQMNSLRAEDTAVYYCARGDQIWYDQWYYFDMWGQGTLVTVSS VL: DIQMTQSPSSLSASVGDRVTITCRASQSIENDLAWYQQKPGKAPKLLIYEASNLQSGVPSRFSGSGSGTDFTLTISSLQPEDFATYYCQQYDSSPLTFGQGTKVEIK
51.8 | CFP0015 15L 50Q (antibody, V domains shown) VH: QVQLLESGGGLVQPGGSLRLSCAASGFTFSSYAMSWVRQAPGKGLEWVSAISGSGGSTYYADSVKGRFTISRDNSKNTLYLQMNSLRAEDTAVYYCARGDQIWYDQWYYFDMWGQGTLVTVSS VL: DIQMTQSPSSLSASVGDRVTITCRASQSIEDDLAWYQQKPGKAPKLLIYQASNLQSGVPSRFSGSGSGTDFTLTISSLQPEDFATYYCQQYDSSPLTFGQGTKVEIK
102 | CFP0015 15L 31Y (antibody, V domains shown) VH: QVQLLESGGGLVQPGGSLRLSCAASGFTFSSYAMSWVRQAPGKGLEWVSAISGSGGSTYYADSVKGRFTISRDNSKNTLYLQMNSLRAEDTAVYYCARGDQIWYDQWYYFDMWGQGTLVTVSS VL: DIQMTQSPSSLSASVGDRVTITCRASQSIEYDLAWYQQKPGKAPKLLIYEASNLQSGVPSRFSGSGSGTDFTLTISSLQPEDFATYYCQQYDSSPLTFGQGTKVEIK
8.8 | CFP0015 15L 50H (antibody, V domains shown) VH: QVQLLESGGGLVQPGGSLRLSCAASGFTFSSYAMSWVRQAPGKGLEWVSAISGSGGSTYYADSVKGRFTISRDNSKNTLYLQMNSLRAEDTAVYYCARGDQIWYDQWYYFDMWGQGTLVTVSS VL: DIQMTQSPSSLSASVGDRVTITCRASQSIEDDLAWYQQKPGKAPKLLIYHASNLQSGVPSRFSGSGSGTDFTLTISSLQPEDFATYYCQQYDSSPLTFGQGTKVEIK
167 | CFP0015 15L 32S (antibody, V domains shown) VH: QVQLLESGGGLVQPGGSLRLSCAASGFTFSSYAMSWVRQAPGKGLEWVSAISGSGGSTYYADSVKGRFTISRDNSKNTLYLQMNSLRAEDTAVYYCARGDQIWYDQWYYFDMWGQGTLVTVSS VL: DIQMTQSPSSLSASVGDRVTITCRASQSIEDSLAWYQQKPGKAPKLLIYEASNLQSGVPSRFSGSGSGTDFTLTISSLQPEDFATYYCQQYDSSPLTFGQGTKVEIK
22.4 | CFP0015 15L 31E (antibody, V domains shown) VH: QVQLLESGGGLVQPGGSLRLSCAASGFTFSSYAMSWVRQAPGKGLEWVSAISGSGGSTYYADSVKGRFTISRDNSKNTLYLQMNSLRAEDTAVYYCARGDQIWYDQWYYFDMWGQGTLVTVSS VL: DIQMTQSPSSLSASVGDRVTITCRASQSIEEDLAWYQQKPGKAPKLLIYEASNLQSGVPSRFSGSGSGTDFTLTISSLQPEDFATYYCQQYDSSPLTFGQGTKVEIK
328 | CFP0015 15L 32Q (antibody, V domains shown) VH: QVQLLESGGGLVQPGGSLRLSCAASGFTFSSYAMSWVRQAPGKGLEWVSAISGSGGSTYYADSVKGRFTISRDNSKNTLYLQMNSLRAEDTAVYYCARGDQIWYDQWYYFDMWGQGTLVTVSS VL: DIQMTQSPSSLSASVGDRVTITCRASQSIEDQLAWYQQKPGKAPKLLIYEASNLQSGVPSRFSGSGSGTDFTLTISSLQPEDFATYYCQQYDSSPLTFGQGTKVEIK
36.5 | CFP0015 15L 31S (antibody, V domains shown) VH: QVQLLESGGGLVQPGGSLRLSCAASGFTFSSYAMSWVRQAPGKGLEWVSAISGSGGSTYYADSVKGRFTISRDNSKNTLYLQMNSLRAEDTAVYYCARGDQIWYDQWYYFDMWGQGTLVTVSS VL: DIQMTQSPSSLSASVGDRVTITCRASQSIESDLAWYQQKPGKAPKLLIYEASNLQSGVPSRFSGSGSGTDFTLTISSLQPEDFATYYCQQYDSSPLTFGQGTKVEIK
30 | CFP0015 15L 31A (antibody, V domains shown) VH: QVQLLESGGGLVQPGGSLRLSCAASGFTFSSYAMSWVRQAPGKGLEWVSAISGSGGSTYYADSVKGRFTISRDNSKNTLYLQMNSLRAEDTAVYYCARGDQIWYDQWYYFDMWGQGTLVTVSS VL: DIQMTQSPSSLSASVGDRVTITCRASQSIEADLAWYQQKPGKAPKLLIYEASNLQSGVPSRFSGSGSGTDFTLTISSLQPEDFATYYCQQYDSSPLTFGQGTKVEIK
25.8 | CFP0015 15L 31Q (antibody, V domains shown) VH: QVQLLESGGGLVQPGGSLRLSCAASGFTFSSYAMSWVRQAPGKGLEWVSAISGSGGSTYYADSVKGRFTISRDNSKNTLYLQMNSLRAEDTAVYYCARGDQIWYDQWYYFDMWGQGTLVTVSS VL: DIQMTQSPSSLSASVGDRVTITCRASQSIEQDLAWYQQKPGKAPKLLIYEASNLQSGVPSRFSGSGSGTDFTLTISSLQPEDFATYYCQQYDSSPLTFGQGTKVEIK
87.3 | CFP0015 15L 32E (antibody, V domains shown) VH: QVQLLESGGGLVQPGGSLRLSCAASGFTFSSYAMSWVRQAPGKGLEWVSAISGSGGSTYYADSVKGRFTISRDNSKNTLYLQMNSLRAEDTAVYYCARGDQIWYDQWYYFDMWGQGTLVTVSS VL: DIQMTQSPSSLSASVGDRVTITCRASQSIEDELAWYQQKPGKAPKLLIYEASNLQSGVPSRFSGSGSGTDFTLTISSLQPEDFATYYCQQYDSSPLTFGQGTKVEIK
44.2 | CFP0015 15L 50A (antibody, V domains shown) VH: QVQLLESGGGLVQPGGSLRLSCAASGFTFSSYAMSWVRQAPGKGLEWVSAISGSGGSTYYADSVKGRFTISRDNSKNTLYLQMNSLRAEDTAVYYCARGDQIWYDQWYYFDMWGQGTLVTVSS VL: DIQMTQSPSSLSASVGDRVTITCRASQSIEDDLAWYQQKPGKAPKLLIYAASNLQSGVPSRFSGSGSGTDFTLTISSLQPEDFATYYCQQYDSSPLTFGQGTKVEIK
131 | CFP0015 15L 50D (antibody, V domains shown) VH: QVQLLESGGGLVQPGGSLRLSCAASGFTFSSYAMSWVRQAPGKGLEWVSAISGSGGSTYYADSVKGRFTISRDNSKNTLYLQMNSLRAEDTAVYYCARGDQIWYDQWYYFDMWGQGTLVTVSS VL: DIQMTQSPSSLSASVGDRVTITCRASQSIEDDLAWYQQKPGKAPKLLIYDASNLQSGVPSRFSGSGSGTDFTLTISSLQPEDFATYYCQQYDSSPLTFGQGTKVEIK
15.1 | CFP0015 15L 32Y (antibody, V domains shown) VH: QVQLLESGGGLVQPGGSLRLSCAASGFTFSSYAMSWVRQAPGKGLEWVSAISGSGGSTYYADSVKGRFTISRDNSKNTLYLQMNSLRAEDTAVYYCARGDQIWYDQWYYFDMWGQGTLVTVSS VL: DIQMTQSPSSLSASVGDRVTITCRASQSIEDYLAWYQQKPGKAPKLLIYEASNLQSGVPSRFSGSGSGTDFTLTISSLQPEDFATYYCQQYDSSPLTFGQGTKVEIK
78.1 | CFP0015 15L 32T (antibody, V domains shown) VH: QVQLLESGGGLVQPGGSLRLSCAASGFTFSSYAMSWVRQAPGKGLEWVSAISGSGGSTYYADSVKGRFTISRDNSKNTLYLQMNSLRAEDTAVYYCARGDQIWYDQWYYFDMWGQGTLVTVSS VL: DIQMTQSPSSLSASVGDRVTITCRASQSIEDTLAWYQQKPGKAPKLLIYEASNLQSGVPSRFSGSGSGTDFTLTISSLQPEDFATYYCQQYDSSPLTFGQGTKVEIK
100 | CFP0015 15L 34N (antibody, V domains shown) VH: QVQLLESGGGLVQPGGSLRLSCAASGFTFSSYAMSWVRQAPGKGLEWVSAISGSGGSTYYADSVKGRFTISRDNSKNTLYLQMNSLRAEDTAVYYCARGDQIWYDQWYYFDMWGQGTLVTVSS VL: DIQMTQSPSSLSASVGDRVTITCRASQSIEDDLNWYQQKPGKAPKLLIYEASNLQSGVPSRFSGSGSGTDFTLTISSLQPEDFATYYCQQYDSSPLTFGQGTKVEIK
59.4 | CFP0015 15L 31H (antibody, V domains shown) VH: QVQLLESGGGLVQPGGSLRLSCAASGFTFSSYAMSWVRQAPGKGLEWVSAISGSGGSTYYADSVKGRFTISRDNSKNTLYLQMNSLRAEDTAVYYCARGDQIWYDQWYYFDMWGQGTLVTVSS VL: DIQMTQSPSSLSASVGDRVTITCRASQSIEHDLAWYQQKPGKAPKLLIYEASNLQSGVPSRFSGSGSGTDFTLTISSLQPEDFATYYCQQYDSSPLTFGQGTKVEIK
